# Results from PMC8906176.
# pKd: −log10 of the molar value.
# How the values were obtained:
# Assay in all cases: BLI
# C12b-AM1 monobody = target: C12b-AM1 monobody
# C12b-AM2 monobody = target: C12b-AM2 monobody
# C4-AM1 monobody = target: C4-AM1 monobody
# C4-AM2 monobody = target: C4-AM2 monobody
# C6b-AM2 monobody = target: C6b-AM2 monobody
substance,measurement,setting,value
"SARS-CoV-2 S protein receptor-binding domain, wild type (B.1.1) (from UniProt P0DTC2) (domain or fragment)",pKd,C12b-AM1 monobody,9.00
same,pKd,C12b-AM2 monobody,> 11.00
same,pKd,C4-AM1 monobody,9.96
same,pKd,C4-AM2 monobody,> 11.00
same,pKd,C6b-AM2 monobody,9.44
